Measured values as given in patent publication US20040171074A1, “Structures of substrate binding pockets of SCF complexes” (MOUNT SINAI HOSPITAL, priority 2002, published 2004).
Entries after “also recorded” stand apart in the source; their conditions may differ.

Tests used:
Skp1 = molecular target: T1, Skp1 (Saccharomyces cerevisiae, UniProt P52286); assay: Skp1 binding in vitro (pull down); parameters: species or system yeast
T1 construct: GST (N); made in house; host or cells: bacteria
Text: In order to probe the functional importance of amino acid residues on the highly conserved peptide binding surface, a panel of Cdc4 mutants (both single and double mutant) were generated and tested each for its ability to bind phospho Sic1 and Skp1 in vitro using a pull down assay and for its ability to substitute for wt-cdc4 in vivo using a cell viability assay. Of 12 single site mutants tested, only Arg 467. Arg485Ala Arg534Ala, and Trp 426 abolished both cell viability in vivo and phosphoSic1 binding in vitro. Together, these residues compose most of the interaction surface with the pThr, Pro CPD core. […] Presumably in the context of the full SCF complex in vivo this mutant is sufficiently well behaved to bind phospho Sic1.

cdc4Δ strain = assay: plasmid shuffle assay: complementation of a cdc4Δ strain by CDC4 alleles; format: cell-based, yeast; conditions: viability of cdc4Δ strain on 5-FOA, 2 days at 30° C.
Protocol: (§1) All mutants on a TRP1 ARS CEN plasmid were transformed into a cdc4Δ strain (MT 1259) containing a wildtype copy of CDC4 on a URA3 ARS CEN plasmid. Cells were plated on either Trp^−Ura^− or 5-FOA medium for 2 days at 30° C. Viable cells on 5-FOA were grown in Trp medium and transformed with either wild type GAL1-SIC1, GAL1-SIC T45A, or GAL1-SIC T33V on a LEU2 ARS CEN pasmid. Cells were then plated on Leu- Trp-plates containing either glucose or galactose and incubated for 2 days at 30° C.
(§2) Cdc4 functional assays. CDC4 mutant alleles were assessed for complementation of a cdc4A strain in a plasmid shuffle assay (Nash et al., 2001). Sensitivity to SIC1 dosage was determined by transformation with pMT837 (GAL1-SIC1) or pMT767 (GAL1-SIC1^T33V) and plating on glucose medium or galactose medium. For in vitro capture of phospho-Sic1 by Cdc4, 0.5 μg of bacterially-expressed ^HIS6Sic1 was phosphorylated with immobilized Cln2-Cdc28 kinase from baculovirus-infected Sf9 cells and then incubated with 1 μg of immobilized wild type or mutant Cdc4^263-744-GST-Skp1, at 4° C. for 1 hr, washed 4 times and visualized by anti-Sic1 immunoblot. For isoelectric focusing (IEF)-2D gel analyses, an evenly distributed pool of phospho-Sic1 isoforms was generated by combining different time points in a Sic1 phosphorylation reaction. 2.5 μg of the phospho-Sic1 pool was bound to 5 μg of immobilized wild type or mutant Cdc4^1-744-GST-Skp1. Captured isoforms were separated by denaturing IEF-2D gel electrophoresis using pH3-10NL Immobiline gel strips (Amersham) and visualized by anti-Sic1 immunoblot. Alternatively, the pool of phospho-Sic1 isoforms was incubated in solution with a ubiquitination reaction mix containing ATP, ubiquitin, yeast E1, Cdc34 and either wild type or mutant SCF^Cdc4 complex, composed of a 1:1 ratio of bacterial Cdc4-GST-Skp1 and insect cell-produced Cdc53-Rbx1, at 30° C. for 1 h as previously described (Nash et al., 2001).

phospho-Sic1 = assay: P-Sic1 pull down: in vitro capture of phospho-Sic1 on immobilized wild type or mutant Cdc4-GST-Skp1, anti-Sic1 immunoblot; format: binding, yeast; conditions: Sic1 phosphorylated with Cln2-Cdc28, captured onto GST-Skp1/Cdc4 resin, anti-Sic1 detection
Protocol: (§3) Mutational analysis of the CPD binding surface. Mutants were tested in vitro by ability to bind phosphorylated Sic1 and then captured onto GST-Skp1/Cdc4 resin and detected with anti-sic1 antibody. Mutants were tested in vivo by ability to degrade GAL1-SIC1 or various phosphorylation mutants. Sites are as follows: 3=Thr 33, Thr 45, Ser 76; 4=Thr 5, Thr 33, Thr 45, Ser 76; 5=Thr 2, Thr 5, Thr 33, Thr 45, Ser 76; 6=Thr 2, Thr 5, Thr 33, Thr 45, Ser 69, Ser 76; 7=Thr 2, Thr 5, Thr 33, Thr 45, Ser 69, Ser 76, Ser 80. GAL1-SIC1 plasmids were transformed into a cdc4Δ strain containing a copy of CDC4 on a TRP1 ARS CEN plasmid. Strains were incubated for 2 days at 30° C.
(§4) Bacterially expressed His6-Sic1 was phosphorylated with Cln2-Cdc28 kinase purified from baculovirus infected Sf9 cells as described before (Nature paper). 1 ug of WT or mutant Cdc4-GST-Skp1, immoblized on GSH-Sepharose resin, was incubated with 0.5 ug phospho-Sic1 at 4 C for 1 h and washed 4 times. Captured complexes were resolved on SDS-PAGE and Sic1 visualized by anti-Sic1 Western blotting and ECL. For IEF-2D analysis, several Sic1 phosphorylation reactions were carried out for different time periods to obtain a spectrum of Sic1 that were phosphorylated at different numbers of its nine CDK sites. This pool of phospho-Sic1 (2.5 ug) was incubated with 5 μg of WT or mutant Cdc4-GST-Skp1 as described above. Different phosphorylation states of Sic1 were separated by denaturing isoelectric focusing (IEF)-2D gel electrophoresis and visualized by anti-Sic1 Western blotting and ECL. IEF was performed using pH 3-10NL Immobiline gel strips and IPGphore IEF system (Amersham pharmacia).
as §2

phospho-Sic1 isoforms = assay: IEF-2D gel analysis of Sic1 phospho-isoforms captured by wild type or mutant Cdc4-GST-Skp1; format: binding, yeast; conditions: pool of Sic1 phosphorylated on 1 to 9 sites
Protocol: as §4
Cdc4 functional assays. CDC4 mutant alleles were assessed for complementation of a cdc4A strain in a plasmid shuffle assay (Nash et al., 2001). Sensitivity to SIC1 dosage was determined by transformation with pMT837 (GAL1-SIC1) or pMT767 (GAL1-SIC1^T33V) and plating on glucose medium or galactose medium. […]

[1] = system: cdc4Δ strain overexpressing SIC1; assay: sensitivity to SIC1 dosage: GAL1-SIC1 overexpression in strains bearing CDC4 alleles; format: cell-based, yeast; conditions: galactose, 2 days at 30° C.
Protocol: as §3, §1
Since the cell viability assay nay be masking subtle functional roles for the conserved Cdc4 residues, function was assayed in vivo under more stringent conditions in which Sic1 wt or the stabilized mutants, Sic1 (T33V) or Sic1(T45A) are over-expressed under a galactose promoter. This should amplify defects in cdc4 function. Under these conditions, Trp 717, Tyr 548 and the double mutant K404D/R443D are lethal showing that these residues are in fact important for functions
as §2

T1 sequence (P52286 2-194 limits assumed): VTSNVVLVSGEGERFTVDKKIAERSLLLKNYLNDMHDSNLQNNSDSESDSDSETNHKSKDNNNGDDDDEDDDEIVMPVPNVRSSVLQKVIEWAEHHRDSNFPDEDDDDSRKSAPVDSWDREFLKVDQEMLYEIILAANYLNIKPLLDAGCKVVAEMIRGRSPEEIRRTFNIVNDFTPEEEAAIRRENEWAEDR

Row | Molecule | Skp1 binding (Skp1) | shuffle (cdc4Δ strain) | shuffle (cdc4Δ strain; listed as Arg534Ala) | P-Sic1 pull down (phospho-Sic1) | P-Sic1 pull down (phospho-Sic1; listed as Arg534Ala) | shuffle (cdc4Δ strain; listed as Trp 426) | shuffle (cdc4Δ strain; listed as Trp426Ala) | P-Sic1 pull down (phospho-Sic1; listed as Trp 426) | P-Sic1 pull down (phospho-Sic1; listed as Trp426Ala) | Sic1 phospho-isoforms captured (number of phosphorylated sites) (phospho-Sic1 isoforms) | gal Sic1T33V ([1]; GAL1-SIC1 T33V (partially stabilized Sic1)) | gal Sic1T45A ([1]; GAL1-SIC1 T45A) | gal Sic1 wt ([1]; GAL1-SIC1 wild type) | shuffle (cdc4Δ strain; listed as V384N/W717N) | P-Sic1 pull down (phospho-Sic1; listed as V384N/W717N)
1 | R534A: mutant cdc4 polypeptide (protein) MGSFPLAEFPLRDIPVPYSYRVSGGIASSGSVTALVTAAGTHRNSSTAKTVETEDGEEDIDEYQRKRAAGSGESTPERSDFKRVKHDNHKTLHPVNLQNTGAASVDNDGLHNLTDISNDAEKLLMSVDDGSAAPSTLSVNMGVASHNVAAPTTVNAATITGSDVSNNVNSATINNPMEEGALPLSPTASSPGTTTPLAKTTKTINNNNNIADLIESKDSIISPEYLSDEIFSAINNNLPHAYFKNLLFRLVANMDRSELSDLGTLIKDNLKRDLITSLPFEISLKIFNYLQFEDIINSLGVSQNWNKIIRKSTSLWKKLLISENFVSPKGFNSLNLKLSQKYPKLSQQDRLRLSFLENIFILKNWYNPKFVPQRTTLRGHMTSVITCLQFEDNYVITGADDKMIRVYDSINKKFLLQLSGHDGGVWALKYAHGGILVSGSTDRTVRVWDIKKGCCTHVFKGHNSTVRCLDIVEYKNIKYIVTGSRDNTLHVWKLPKESSVPDHGEEHDYPLVFHTPEENPYFVGVLRGHMASVATVSGHGNIVVSGSYDNTLIVWDVAQMKCLYILSGHTDRIYSTIYDHERKRCISASMDTTIRIWDLENIWNNGECSYATNSASPCAKILGAMYTLQGHTALVGLLRLSDKFLVSAAADGSIRGWDANDYSRKFSYHHTNLSAITTFYVSDNILVSGSENQFNIYNLRSGKLVHANILKDADQIWSVNFKGKTLVAAVEKDGQSFLEILDFSKASKINYVSNPVNSSSSSLESISTSLGLTRTTIIP | fully competent | dead | abolished; also recorded: unable | no bind | abolished; also recorded: unable to bind |  |  |  |  |  |  |  |  |  | 
2 | W426A: mutant cdc4 polypeptide (protein) MGSFPLAEFPLRDIPVPYSYRVSGGIASSGSVTALVTAAGTHRNSSTAKTVETEDGEEDIDEYQRKRAAGSGESTPERSDFKRVKHDNHKTLHPVNLQNTGAASVDNDGLHNLTDISNDAEKLLMSVDDGSAAPSTLSVNMGVASHNVAAPTTVNAATITGSDVSNNVNSATINNPMEEGALPLSPTASSPGTTTPLAKTTKTINNNNNIADLIESKDSIISPEYLSDEIFSAINNNLPHAYFKNLLFRLVANMDRSELSDLGTLIKDNLKRDLITSLPFEISLKIFNYLQFEDIINSLGVSQNWNKIIRKSTSLWKKLLISENFVSPKGFNSLNLKLSQKYPKLSQQDRLRLSFLENIFILKNWYNPKFVPQRTTLRGHMTSVITCLQFEDNYVITGADDKMIRVYDSINKKFLLQLSGHDGGVAALKYAHGGILVSGSTDRTVRVWDIKKGCCTHVFKGHNSTVRCLDIVEYKNIKYIVTGSRDNTLHVWKLPKESSVPDHGEEHDYPLVFHTPEENPYFVGVLRGHMASVRTVSGHGNIVVSGSYDNTLIVWDVAQMKCLYILSGHTDRIYSTIYDHERKRCISASMDTTIRIWDLENIWNNGECSYATNSASPCAKILGAMYTLQGHTALVGLLRLSDKFLVSAAADGSIRGWDANDYSRKFSYHHTNLSAITTFYVSDNILVSGSENQFNIYNLRSGKLVHANILKDADQIWSVNFKGKTLVAAVEKDGQSFLEILDFSKASKINYVSNPVNSSSSSLESISTSLGLTRTTIIP | fully competent | dead |  | no bind |  | abolished | unable | abolished | unable to bind |  |  |  |  |  | 
3 | W717N/V384N: double mutant cdc4 polypeptide compromised for selection at P−1 (protein) MGSFPLAEFPLRDIPVPYSYRVSGGIASSGSVTALVTAAGTHRNSSTAKTVETEDGEEDIDEYQRKRAAGSGESTPERSDFKRVKHDNHKTLHPVNLQNTGAASVDNDGLHNLTDISNDAEKLLMSVDDGSAAPSTLSVNMGVASHNVAAPTTVNAATITGSDVSNNVNSATINNPMEEGALPLSPTASSPGTTTPLAKTTKTINNNNNIADLIESKDSIISPEYLSDEIFSAINNNLPHAYFKNLLFRLVANMDRSELSDLGTLIKDNLKRDLITSLPFEISLKIFNYLQFEDIINSLGVSQNWNKIIRKSTSLWKKLLISENFVSPKGFNSLNLKLSQKYPKLSQQDRLRLSFLENIFILKNWYNPKFVPQRTTLRGHMTSNITCLQFEDNYVITGADDKMIRVYDSINKKFLLQLSGHDGGVWALKYAHGGILVSGSTDRTVRVWDIKKGCCTHVFKGHNSTVRCLDIVEYKNIKYIVTGSRDNTLHVWKLPKESSVPDHGEEHDYPLVFHTPEENPYFVGVLRGHMASVRTVSGHGNIVVSGSYDNTLIVWDVAQMKCLYILSGHTDRIYSTIYDHERKRCISASMDTTIRIWDLENIWNNGECSYATNSASPCAKILGAMYTLQGHTALVGLLRLSDKFLVSAAADGSIRGWDANDYSRKFSYHHTNLSAITTFYVSDNILVSGSENQFNIYNLRSGKLVHANILKDADQINSVNFKGKTLVAAVEKDGQSFLEILDFSKASKINYVSNPVNSSSSSLESISTSLGLTRTTIIP |  | alive |  | bind |  |  |  |  |  | as few as four | dead | dead | alive | viable | fully competent
